Consider two molecules from patent US20110182887A1 (AstraZeneca / MedImmune, published 2011).

Assay [1] concerns the target T1, human CD22 (hCD22) expressed on the cell surface (human, UniProt P20273 20-847).
T1 construct: whole, on cells; One molecule is used for all cell-surface formats; also called human CD22 antigen; BHK-CD22
Briefly: BHK-CD22 cell ELISA, COS-7 supernatant.

In assay [2] the target is T1, human CD22 (hCD22) expressed on the …. The assay is described as follows: flow cytometry on CHO cells transfected with human CD22, labelled secondary antibody, median fluorescence intensity. The protocol:
CHO cells expressing hCD22 were prepared by transfection with a plasmid encoding human CD22 using the Lipofectamine procedure. […] Cells were incubated on ice for 20 minutes then washed and resuspended in PBS followed by addition of secondary antibody, either a goat anti-human (GAH) or GAM-F(ab)′2 anti human-RPE at a 1:1000 dilution. Cells were incubated on ice for an additional 10 minutes and binding activity was evaluated via FACS analysis on a Guava flow cytometer.

Assay [3] shares this target. Briefly: cell ELISA on BHK cells expressing human CD22, goat anti-mouse Ig-HRP, OD 450 nm. From the text: The BHK-CD22 binding assay was used to test the binding activity of the chHB227 antibody in the transiently transformed COS 7 culture supernatants. A goat anti-human Ig-HRP conjugate (Sigma Chemicals) was used to detect binding of chHB22.7 mAb while a goat anti-mouse Ig-HRP conjugate (Southern Biotechnology) was used to detect binding of the parental mouse HB22.7 mAb. The bound HRP conjugates were exposed to the substrate o-phenyldiamine (OPD) and the resulting products detected at 450 nm.

Assay [4] addresses hCD22 (ligand immobilised on the BIAcore CM5 sensor chip) (human, UniProt P20273 20-687, limits assumed). The assay is described as follows: SPR (BIAcore 3000), hCD22 immobilised on CM5 chip, IgG injected, 1:1 model. On the procedure:
Binding affinity of HB22.7 and RHOv2ACD/RKA were determined on a BIAcore 3000 instrument (BIAcore, Inc., Uppsala, Sweden). The ligand, hCD22, was prepared at 50 nM in 10 mM NaOAc, pH4 buffer. It was injected onto an EDC/NHS-activated CM5 sensor chip (BIAcore, Inc. Uppsala, Sweden) using a standard immobilization protocol. Following this, any unreacted active ester moieties were quenched using 1M Et-NH2 (ethanolamine; coupling reagents purchased from BIAcore, Inc.). A total of 535 and 689 RUs hCD22 remained bound to two sensor chip surfaces used in these experiments. Separately, a blank surface was prepared on each sensor chip using the identical protocol (minus protein). The blank surfaces were used as a reference cell in the experiments, and served to correct for both non-specific binding and some housekeeping artifacts.
For the kinetic experiments, HB22.7 and RHOv2ACD/RKA were prepared as two dilution series, starting at 22 nM and 100 nM, then diluted three- and two-fold, respectively, down to final concentrations of 0.03 nM and 0.39 nM in HBS-EP buffer (BIAcore, Inc., consisting of the following: 10 mM HEPES buffer, pH7.4, 150 mM NaCl, 3 mM EDTA, and 0.005% P20). Each concentration of IgG was then injected over both the CD22 and reference cell surfaces, which are connected in series. Between injections, surfaces were regenerated with a 1-minute injection of 3M MgCl2.

Assay [5] addresses T1, human CD22 (hCD22) expressed on the …. The assay is described as follows: competitive cell ELISA on CD22; increasing mouse HB22.7 mixed with 250 ng/ml chHB227 (competitor); mouse HB22.7 titrated against 250 ng/ml chimeric antibody. On the procedure: To confirm the binding effectiveness of the RHF+RKC humanized antibody, a competitive ELISA was performed with increasing amounts of the mouse HB22.7 antibody mixed with 250 ng/ml of chimeric or humanized antibody.

B1: HB227RHC heavy chain + chimeric HB22.7 light chain (chL) (antibody, human IgG1, V domains shown)
VH: QVQLQESGPALVKPTQTLTLTCTFSGFSLSDYGVNWIRQPPGKALEWLGIIWGDGRTDYNSALKSRLSISKDNSKNQVVLRMTNVDPVDTATYFCARAPGNRAMEYWGQGTVVTVSS
VL: SIVMTQTPKFLLVSAGDRITLTCKASQSVTNDVAWYQQKPGQSPKLLIYYASNRYTGVPDRFTGSGYGTDFTFTISTVQAEDLAVYFCQQDYRSPWTFGGGTKLEI
notes: Human IgG1 kappa, COS-7 supernatant; The VH entry may include the leader; also called RHC+chL
For the molecule B1, in assay [1], the “fold better binding than HB227RHB with the same chimeric light chain” value was roughly 2 fold.

B2: parental mouse monoclonal anti-CD22 antibody HB22.7 (antibody, V domains shown)
VH: QVQLKESGPGLVAPSQSLSITCTVSGFSLSDYGVNWVRQIPGKGLEWLGIIWGDGRTDYNSALKSRLNISKDNSKSQVFLKMNSLKADDTARYYCARAPGNRAMEYWGQGTSVTVS
VL: B1 VL
notes: Mouse antibody from hybridoma ATCC HB11347; It was labelled with Alexa-fluor in some cell assays; also called mouse HB22.7; murine HB22.7
For B2, the “EC50 (read off the curve)” value in assay [2] is roughly 0.2 ug mAb per 10e6 cells. Besides, in assay [3], the “EC50 (read off the curve)” value is roughly 0.09 mg/L. In assay [4], this molecule had an equilibrium dissociation constant (Kd) of 0.014 µM, a koff of 0.00017 s⁻¹ and a kon of 12000 M⁻¹ s⁻¹. Moreover, the IC50 in assay [5] is roughly 4 mg/L.
